# Reference: patent US20110076248A1 (MYRIAD GENETICS, published 2011)
# B1: binding domain-wild type p6gag construct (HIV1 p6 peptide of the HIV1.NL43 strain GAG protein in pGBT.Q) (other)
# chain: LQSRPEPTAPPEESFRFGEETTTPSQKQEPIDKELYPLASLRSLFGSDPSSQ
# B2: binding domain-mutant p6gag construct p6(P10L) (other)
# chain: LQSRPEPTALPEESFRFGEETTTPSQKQEPIDKELYPLASLRSLFGSDPSSQ
# notes: The mutation number counts on p6gag
# B3: binding domain-mutant p6gag construct p6(P7L) (other)
# chain: LQSRPELTAPPEESFRFGEETTTPSQKQEPIDKELYPLASLRSLFGSDPSSQ
# notes: as for B2
# B4: binding domain-mutant p6gag construct p6(A9R) (other)
# chain: LQSRPEPTRPPEESFRFGEETTTPSQKQEPIDKELYPLASLRSLFGSDPSSQ
# notes: as for B2
# Assays:
# [1] = target: T1, activation domain-Tsg101 construct (full-length Tsg101 in GADpN2: SV40NLS-GAL4 (768-881)-Tsg101) (human, UniProt P04386 768-881; Q99816 1-390); test: cell-based or functional assay
# T1 sequence: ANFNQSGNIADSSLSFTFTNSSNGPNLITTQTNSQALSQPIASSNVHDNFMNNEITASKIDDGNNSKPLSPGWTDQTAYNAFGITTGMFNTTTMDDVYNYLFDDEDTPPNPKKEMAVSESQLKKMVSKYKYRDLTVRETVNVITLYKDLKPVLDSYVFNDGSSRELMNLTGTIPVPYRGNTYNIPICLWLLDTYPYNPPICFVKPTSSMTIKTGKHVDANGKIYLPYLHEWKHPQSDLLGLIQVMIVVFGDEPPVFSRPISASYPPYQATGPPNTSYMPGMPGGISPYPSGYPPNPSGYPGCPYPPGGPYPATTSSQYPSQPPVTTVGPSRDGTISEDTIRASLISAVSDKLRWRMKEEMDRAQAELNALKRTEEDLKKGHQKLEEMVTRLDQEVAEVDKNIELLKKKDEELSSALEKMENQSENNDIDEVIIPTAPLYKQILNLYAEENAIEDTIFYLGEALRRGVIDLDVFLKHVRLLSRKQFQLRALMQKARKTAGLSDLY
# [2] = target: T1, activation domain-Tsg101 construct …; test: yeast two-hybrid, filter lift β-Gal assay
Binder,β-galactosidase activity in the two-hybrid liquid culture assay [1] [fold over background],binding result [2]
B1,> 300,
B2,,no binding
B3,,no binding
B4,,no binding
